Experimental findings from PMC4163903 are described below.

The subject of this data set is ABD-B homeodomain (ABD-B HD) (Drosophila). Briefly: EMSA. (In general: A gel shift assay detects complexes by their altered migration in electrophoresis.)

abd-A probe: the Kd (in general, the equilibrium constant for the complex coming apart) is 5.48 nM.
